Assay results as given in patent US20210188948A1.

How the values were obtained:
Assay in all cases: cell-based or functional assay
[1] = target: West Nile virus (WNV) reporter virus particles (RVPs) (West Nile virus)
[2] = target: DENV4 reporter virus particles (RVPs) (Dengue virus serotype 4)
[3] = target: DENV3 reporter virus particles (RVPs) (Dengue virus serotype 3)
[4] = target: Zika virus (ZIKV) reporter virus particles (RVPs) (Zika virus)
[5] = target: DENV1 reporter virus particles (RVPs) (Dengue virus serotype 1)

| Substance | IC50 (neutralization) [1] | IC50 (neutralization) [2] | percent neutralization [2] | percent neutralization [1] | IC50 (neutralization) [3] | percent neutralization [3] | IC50 (neutralization) [4] | percent neutralization [4] | IC50 (neutralization) [5] | percent neutralization [5] |
| --- | --- | --- | --- | --- | --- | --- | --- | --- | --- | --- |
| WNV-specific mAb CR4354 (antibody) | 0.007 µg/mL | – | – | – | – | – | – | – | – | – |
| monoclonal antibody C10 | – | 0.038 µg/mL | 98% | -195% | 0.753 µg/mL | -95% | 0.038 µg/mL | 99% | 0.352 µg/mL | 52% |
| monoclonal antibody E16 | – | – | -177% | 99% | – | -415% | – | -38% | – | -303% |
